Assay results from PMC3457981, “The Role, Interaction and Regulation of the Velvet Regulator VelB in Aspergillus nidulans”.

target: T1, GST-AbaA (Aspergillus nidulans, UniProt P20945 1-588); experiment: EMSA; 6% glycerol, 12 mM HEPES-KOH pH 7.6, 4 mM Tris-HCl pH 8.0, 1 mM EDTA, 0.5 mM DTT, 0-12 ug poly(dI-dC), ~10 ng probe in 24 ul; RT, 20 min; 6% PAGE, TBE; details: protein: recombinant; tags: N-terminal GST (pGEX-5X-1); label: 32P (5' end, T4 PNK); blunt
T1 sequence: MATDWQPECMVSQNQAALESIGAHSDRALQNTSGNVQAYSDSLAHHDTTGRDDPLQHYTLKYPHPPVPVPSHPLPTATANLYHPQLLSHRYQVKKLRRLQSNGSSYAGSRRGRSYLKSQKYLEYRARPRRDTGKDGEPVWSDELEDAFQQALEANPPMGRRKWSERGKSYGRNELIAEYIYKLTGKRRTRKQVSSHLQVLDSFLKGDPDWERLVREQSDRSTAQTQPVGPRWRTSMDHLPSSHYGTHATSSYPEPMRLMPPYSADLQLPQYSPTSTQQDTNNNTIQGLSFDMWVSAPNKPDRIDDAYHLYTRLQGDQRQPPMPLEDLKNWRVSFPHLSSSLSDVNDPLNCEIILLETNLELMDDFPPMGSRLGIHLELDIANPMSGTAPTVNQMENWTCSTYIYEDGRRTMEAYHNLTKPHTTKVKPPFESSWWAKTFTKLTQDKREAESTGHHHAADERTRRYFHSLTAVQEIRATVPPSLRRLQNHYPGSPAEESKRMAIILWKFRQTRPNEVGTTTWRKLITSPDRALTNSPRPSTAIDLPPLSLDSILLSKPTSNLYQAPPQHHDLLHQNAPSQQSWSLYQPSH

Row | Binder | binding result
1 | velB EMSA probe 1 (dsDNA) DNA 1: CAGCTCCATTCCGCACGGTCATTCC DNA 2: GGAATGACCGTGCGGAATGGAGCTG | binds
2 | velB EMSA probe 2 (dsDNA) DNA 1: AGCTCCAGCTCCATTCCGCACGGTCATTCCGTTCTCGGCG DNA 2: CGCCGAGAACGGAATGACCGTGCGGAATGGAGCTGGAGCT | binds
3 | vosA EMSA probe 3 (dsDNA) DNA 1: GTGGTTCCTTACCTCATTCCCGACCTTTTTTGCC DNA 2: GGCAAAAAAGGTCGGGAATGAGGTAAGGAACCAC | binds
